# B1: Cholinesterase (Homo sapiens), P06276 (protein)
# chain: MHSKVTIICIRFLFWFLLLCMLIGKSHTEDDIIIATKNGKVRGMNLTVFGGTVTAFLGIPYAQPPLGRLRFKKPQSLTKWSDIWNATKYANSCCQNIDQSFPGFHGSEMWNPNTDLSEDCLYLNVWIPAPKPKNATVLIWIYGGGFQTGTSSLHVYDGKFLARVERVIVVSMNYRVGALGFLALPGNPEAPGNMGLFDQQLALQWVQKNIAAFGGNPKSVTLFGESAGAASVSLHLLSPGSHSLFTRAILQSGSFNAPWAVTSLYEARNRTLNLAKLTGCSRENETEIIKCLRNKDPQEILLNEAFVVPYGTPLSVNFGPTVDGDFLTDMPDILLELGQFKKTQILVGVNKDEGTAFLVYGAPGFSKDNNSIITRKEFQEGLKIFFPGVSEFGKESILFHYTDWVDDQRPENYREALGDVVGDYNFICPALEFTKKFSEWGNNAFFYYFEHRSSKLPWPEWMGVMHGYEIEFVFGLPLERRDNYTKAEEILSRSIVKRWANFAKYGNPNETQNNSTSWPVFKSTEQKYLTLNTESTRIMTKLRAQQCRFWTSFFPKVLEMTGNIDEAEWEWKAGFHRWNNYMMDWKNQFNDYTSKKESCVGL
# Experiments:
# [1] = compound: CCN(CC)Cc1ccccc1CNC(=O)c1cc(C)cc(NC(=O)c2ccc(F)cc2)c1; experiment: Non competitive inhibition of human BChE assessed as Km at 0.15 nM using BTC as substrate by Lineweaver-Burk plot analysis
# [2] = compound: CCN(CC)Cc1ccccc1CNC(=O)c1cccc(NC(=O)c2ccc(F)cc2)c1; experiment: Mixed type inhibition of human BChE assessed as Km at 0.8 nM using BTC as substrate by Lineweaver-Burk plot analysis
# [3] = compound: CCN(CC)Cc1ccccc1CNC(=O)c1cccc(NC(=O)c2ccc(F)cc2)c1; experiment: Mixed type inhibition of human BChE assessed as Km at 0.4 nM using BTC as substrate by Lineweaver-Burk plot analysis
# [4] = compound: CCN(CC)Cc1ccccc1CNC(=O)c1cccc(NC(=O)c2ccc(F)cc2)c1; experiment: Mixed type inhibition of human BChE assessed as Vmax at 0.2 nM using BTC as substrate by Lineweaver-Burk plot analysis
# [5] = compound: CCN(CC)Cc1ccccc1CNC(=O)c1cc(C)cc(NC(=O)c2ccc(F)cc2)c1; experiment: Non competitive inhibition of human BChE assessed as Vmax at 0.15 nM using BTC as substrate by Lineweaver-Burk plot analysis
# [6] = compound: CCN(CC)Cc1ccccc1CNC(=O)c1cccc(NC(=O)c2ccc(F)cc2)c1; experiment: Mixed type inhibition of human BChE assessed as Vmax at 0.8 nM using BTC as substrate by Lineweaver-Burk plot analysis
# [7] = compound: CCN(CC)Cc1ccccc1CNC(=O)c1cccc(NC(=O)c2ccc(F)cc2)c1; experiment: Mixed type inhibition of human BChE assessed as Vmax at 1.5 nM using BTC as substrate by Lineweaver-Burk plot analysis
# [8] = compound: CCN(CC)Cc1ccccc1CNC(=O)c1cc(C)cc(NC(=O)c2ccc(F)cc2)c1; experiment: Non competitive inhibition of human BChE assessed as Vmax at 0.12 nM using BTC as substrate by Lineweaver-Burk plot analysis
# [9] = compound: CCN(CC)Cc1ccccc1CNC(=O)c1cc(C)cc(NC(=O)c2ccc(F)cc2)c1; experiment: Non competitive inhibition of human BChE assessed as Km at 0.1 nM using BTC as substrate by Lineweaver-Burk plot analysis
# [10] = compound: CCN(CC)Cc1ccccc1CNC(=O)c1cccc(NC(=O)c2ccc(F)cc2)c1; experiment: Mixed type inhibition of human BChE assessed as Vmax at 0.4 nM using BTC as substrate by Lineweaver-Burk plot analysis
# [11] = compound: CCN(CC)Cc1ccccc1CNC(=O)c1cc(C)cc(NC(=O)c2ccc(F)cc2)c1; experiment: Non competitive inhibition of human BChE assessed as Vmax at 0.02 nM using BTC as substrate by Lineweaver-Burk plot analysis
# [12] = compound: CCN(CC)Cc1ccccc1CNC(=O)c1cccc(NC(=O)c2ccc(F)cc2)c1; experiment: Mixed type inhibition of human BChE assessed as Km at 1.5 nM using BTC as substrate by Lineweaver-Burk plot analysis
# [13] = compound: CCN(CC)Cc1ccccc1CNC(=O)c1cc(C)cc(NC(=O)c2ccc(F)cc2)c1; experiment: Non competitive inhibition of human BChE assessed as Km at 0.12 nM using BTC as substrate by Lineweaver-Burk plot analysis
# [14] = compound: CCN(CC)Cc1ccccc1CNC(=O)c1cccc(NC(=O)c2ccc(F)cc2)c1; experiment: Mixed type inhibition of human BChE assessed as Vmax at 1 nM using BTC as substrate by Lineweaver-Burk plot analysis
# [15] = compound: CCN(CC)Cc1ccccc1CNC(=O)c1cccc(NC(=O)c2ccc(F)cc2)c1; experiment: Mixed type inhibition of human BChE assessed as Km at 1 nM using BTC as substrate by Lineweaver-Burk plot analysis
# [16] = compound: CCN(CC)Cc1ccccc1CNC(=O)c1cccc(NC(=O)c2ccc(F)cc2)c1; experiment: Mixed type inhibition of human BChE assessed as Km at 0.2 nM using BTC as substrate by Lineweaver-Burk plot analysis
# [17] = compound: CCN(CC)Cc1ccccc1CNC(=O)c1cc(C)cc(NC(=O)c2ccc(F)cc2)c1; experiment: Non competitive inhibition of human BChE assessed as Vmax at 0.1 nM using BTC as substrate by Lineweaver-Burk plot analysis
# [18] = compound: CCN(CC)Cc1ccccc1CNC(=O)c1cc(C)cc(NC(=O)c2ccc(F)cc2)c1; experiment: Non competitive inhibition of human BChE assessed as Km at 0.02 nM using BTC as substrate by Lineweaver-Burk plot analysis
protein,measurement,setting,value
B1,Km,[1],201 s⁻¹
same,Km,[2],621 s⁻¹
same,Km,[3],558 s⁻¹
same,Vmax,[4],0.7 s⁻¹
same,Vmax,[5],0.15 s⁻¹
same,Vmax,[6],0.63 s⁻¹
same,Vmax,[7],0.48 s⁻¹
same,Vmax,[8],0.19 s⁻¹
same,Km,[9],204 s⁻¹
same,Vmax,[10],0.86 s⁻¹
same,Vmax,[11],0.38 s⁻¹
same,Km,[12],707 s⁻¹
same,Km,[13],201 s⁻¹
same,Vmax,[14],0.61 s⁻¹
same,Km,[15],684 s⁻¹
same,Km,[16],511 s⁻¹
same,Vmax,[17],0.24 s⁻¹
same,Km,[18],205 s⁻¹

# Source: ChEMBL document CHEMBL5137095, “N-Benzyl Benzamide Derivatives as Selective Sub-Nanomolar Butyrylcholinesterase Inhibitors for Possible Treatment in Advanced Alzheimer's Disease” (J Med Chem, 2022)
